From the supplement of paper PMC10567573

B1: PLD5 (parent)
chain: VTYMNMTAYNKGRLQSSFWIVDKQ

Variants of: B1
Test: protein stability index of a GFP-peptide fusion (GPS, HEK-293T) (PSI 1-6); higher = more stable
Conditions: c terminus: a fixed tail appended
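Further: lentivirally expressed fusions sorted by FACS into six bins by GFP to DsRed ratio, PSI derived from sequencing read proportions per bin multiplied by bin number.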

Protein stability index of substitutions, site by site:
G12: F 3.77, S 2.38, Y 2.49, M 2.18, C 1.53, L 4.29, E 1.8, V 1.91, T 1.8, K 2.31, H 1.15, D 3.02, Q 1.37, A 1.89, R 1.58
Y9: S 1.83, W 3.74, E 2.11, D 2.58, G 2.11, R 1.58, M 2.17, I 2.59, H 1.75, P 1.1, L 1.92, Q 1.33, K 2.02, A 1.62, V 1.81, C 2.55, N 1.78, F 3.22, T 2.06
M6: S 1.87, L 3.25, G 2.46, N 1.76, I 2.91, Q 2.1, A 1.18, D 2.13, K 1.58, E 1.65, R 2.06, P 1.6, H 1.93, C 2.61, Y 2.08, F 2.16, T 1.58, V 2.89
R13: Q 2.13, M 2.14, D 3.06, K 1.27, I 2.15, H 3.22, E 1.73, N 1.52, L 1.51, A 3.25, S 1.59, G 1.6, T 1.48, W 4.66
N10: A 2.67, C 2.87, D 2.75, E 3.78, Q 2.97, K 1.89, M 3.39, L 1.28, R 2.25, Y 2.25, W 3.08, P 2, S 1.95, H 1.97, T 2.49
K11: L 3.44, R 1.96, I 3.18, Q 1.84, E 3.5, P 2.17, G 1.65, N 3.07, Y 3.58, H 1.95, D 1.96, A 1.36, T 2.14, S 2.96, W 1.68
A8: C 2.68, G 2.11, R 1.9, Q 1.5, Y 2.39, T 2.02, I 3.64, S 2.24, P 3.56, E 1.46, L 2.22, D 1.1, H 1.93, K 1.95, V 3.16, F 2.41, N 2.29, M 2.46
M4: L 1.68, A 1.98, H 1.89, V 3.21, D 1.89, E 2.3, P 2.09, N 1.5, F 3.33, R 1.34, K 2.05, Q 2.18, C 3.5, S 3.45, G 2.13, T 2.44, Y 2.31
Y3: N 3.08, K 1.62, V 2.33, H 1.67, F 2.88, Q 1.76, W 3.91, E 3.13, P 2.06, G 1.59, R 2.4, T 1.66, S 2.51, M 2.14
N5: I 2.99, L 3, A 3.48, E 2.76, R 3.38, M 3.53, F 2.69, P 1.49, W 3.13, T 2.08, D 1.45
T7: E 1.02, A 3.57, F 1.89, H 2.05, D 1.87, S 2.21, L 2.3, P 1.22, Q 2.36, N 2.46, V 2.61
